Where “and” joins values, the source holds several entries; their conditions need not be identical. Equal values may be shown once.

From patent publication US20220017622A1 (Pfizer, published 2022) come the findings set out here.

The chains are these.
T1: human B7-H4 extracellular domain (human, UniProt Q7Z7D3 29-258)
T1 construct: Soluble ECD used as SPR analyte; also called huB7-H4 ECD; huB7-H4
T1 sequence: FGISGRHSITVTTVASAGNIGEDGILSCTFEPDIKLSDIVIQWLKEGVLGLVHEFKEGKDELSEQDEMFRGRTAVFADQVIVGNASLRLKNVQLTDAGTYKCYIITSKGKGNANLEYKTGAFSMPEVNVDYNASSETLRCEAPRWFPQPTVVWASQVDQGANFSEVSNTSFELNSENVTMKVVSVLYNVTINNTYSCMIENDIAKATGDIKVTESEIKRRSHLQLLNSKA

T2: human B7-H4 extracellular domain (human, UniProt Q7Z7D3 29-258)
T2 construct: For SPR it says only human B7-H4 ECD; also called Hu B7-H4 ECD; huB7-H4 ECD
T2 sequence: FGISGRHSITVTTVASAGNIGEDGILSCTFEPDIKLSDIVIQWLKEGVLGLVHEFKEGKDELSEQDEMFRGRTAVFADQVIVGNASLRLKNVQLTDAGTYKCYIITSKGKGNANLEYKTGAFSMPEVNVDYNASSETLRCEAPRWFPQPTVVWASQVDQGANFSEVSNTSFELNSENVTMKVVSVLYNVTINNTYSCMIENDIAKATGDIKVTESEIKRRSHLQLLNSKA

B1: B7-H4 antibody 1080 (antibody, human IgG1, kappa, V domains shown)
VH: EVQLVESGGGLVQPGGSLRLSCAVSGGSFSGYYWNWIRQPPGKGLEWIGEINHSGSATYNPSLKSRVTISVDTAKNSLYLQMNSLRAEDTAVYYCARGLYNWNVDHWGQGTLVTVSS
VL: DIQMTQSPSSLSASVGDRVTITCRASQGIRNDLGWYQQKPGKAPKRLIYAASSLQSGVPSRFSGSGSGTDFTLTISSLQPEDFATYYCLQHNAYPRTFGGGTKVEIKR
notes: IgG1 mAb format
B2: B7-H4 antibody 1081 (antibody, human IgG1, kappa, V domains shown)
VH: EVQLVESGGGLVQPGGSLRLSCAVSGGSFSGYYWNWIRQPPGKGLEWIGEIDHQGSTKYNPSLKSRVTISVDTAKNSFYLQMNSLRAEDTAVYYCARGLYNWNVDHWGQGTLVTVSS
VL: DIQMTQSPSSLSASVGDRVTITCRASQGIRNDLGWYQQKPGKAPKRLIYAASSLQSGVPSRFSGSGSGTDFTLTISSLQPEDFATYYCLQHNAYPRTFGGGTKVEIKR
notes: IgG1 mAb format
B3: B7-H4 antibody 1083 (antibody, human IgG1, kappa, V domains shown)
VH: EVQLVESGGGLVQPGGSLRLSCAASGGSFSGYYWNWIRQPPGKGLEWIGEINHSGSATYNPSLKSRVTISVDTAKNSFYLQMNSLRAEDTAVYYCARGLYNWNVDHWGQGTLVTVSS
VL: DIQMTQSPSSLSASVGDRVTITCRASQGIRNDLGWYQQKPGKAPKRLIYAASSLQSGVPSRFSGSGSGTDFTLTISSLQPEDFATYYCLQHNAYPRTFGGGTKVEIKR
notes: IgG1 mAb format
B4: B7-H4 antibody 0934 (antibody, human IgG1, kappa, V domains shown)
VH: EVQLVESGGGLVQPGGSLRLSCAVSGGSFSGYYWNWVRQAPGKGLEWIGEINHSGSATYNPSLKSRVTISVDTAKNSLYLQMNSLRAEDTAVYYCARGLYNWNVDHWGQGTLVTVSS
VL: DIQMTQSPSSLSASVGDRVTITCRASQGIRNDLGWYQQKPGKAPKRLIYAASSLQSGVPSRFSGSGSGTDFTLTISSLQPEDFATYYCLQHSSYPRTFGGGTKVEIKR
notes: IgG1 mAb format
B5: B7-H4 antibody 1081 (antibody, human IgG1, kappa, V domains shown)
VH: EVQLVESGGGLVQPGGSLRLSCAVSGGSFSGYYWNWIRQPPGKGLEWIGEIDHQGSTKYNPSLKSRVTISVDTAKNSFYLQMNSLRAEDTAVYYCARGLYNWNVDHWGQGTLVTVSS
VL: DIQMTQSPSSLSASVGDRVTITCRASQGIRNDLGWYQQKPGKAPKRLIYAASSLQSGVPSRFSGSGSGTDFTLTISSLQPEDFATYYCLQHNAYPRTFGGGTKVEIKR
B6: B7-H4 antibody 0283 (antibody, human IgG1, kappa, V domains shown)
VH: QVQLQQWGAGLLKPSETLPLTCAVYGGSFSGYYWNWIRQPPGKGLEWIGEINHSGSATYNPSLKSRVTISVDTSKNHFSLKLSSVTAADTAVYFCARGLYNWNVDHWGQGTLVTVSS
VL: DIQMTQSPSSLSASVGDRVTITCRASQGIRNDLGWYQQKPGKAPKRLIYAASSLQSGVPSRFSGSGSGTDFTLTISSLQPEDFATYYCLQHNSYPRTFGGGTKVEIKR
B7: B7-H4 antibody 0385 (antibody, human IgG1, kappa, V domains shown)
VH: QVQLQQWGAGLLKPSETLPLTCAVYGGSFSGYYWNWIRQPPGKGLEWIGEINHSGSATYNPSLKSRVTISVDTSKNHFSLKLSSVTAADTAVYFCARGLYNWNVDHWGQGTLVTVSS
VL: DIQMTQSPSSLSASVGDRVTITCRASQGIRNDLGWYQQKPGKAPKRLIYAASSLQSGVPSRFSGSGSGTDFTLTISSLQPEDFATYYCLQHQSYPRTFGGGTKVEIKR
B8: B7-H4 antibody 0270 (antibody, human IgG1, kappa, V domains shown)
VH: QVQLQQWGAGLLKPSETLSLTCAVYGGSFSGYYWNWIRQPPGKGLEWIGEINHSGSTKYNPSLKSRVTISGDTSKNQFSLKLNSVTAADTAVYYCVRGLYNWNVDSWGQGTLVTVSS
VL: DIQMTQSPSSLSASVGDRVTITCRASQGIRNDLGWYQQKPGKAPKRLIYVASSLQSGVPSRFSGSGSGTDFTLTISSLQPEDFATYYCLQHNSYPYTFGQGTKLEIKR
B9: B7-H4 antibody 0279 (antibody, human IgG1, kappa, V domains shown)
VH: EVQLVESGGGLVQPGGSLRLSCAVSGGSFSGYYWNWVRQAPGKGLEWIGEINHSGSATYNPSLKSRFTISVDTAKNSFYLQMNSLRAEDTAVYYCARGLYNWNVDHWGQGTLVTVSS
VL: DIQMTQSPSSLSASVGDRVTITCRASQGIRNDLGWYQQKPGKAPKRLIYAASSLQSGVPSRFSGSGSGTEFTLTISSLQPEDFATYYCLQHNSYPRTFGGGTKVEIKR
B10: B7-H4 antibody 0383 (antibody, human IgG1, kappa, V domains shown)
VH: QVQLQQWGAGLLKPSETLPLTCAVYGGSFSGYYWNWIRQPPGKGLEWIGEINHSGSATYNPSLKSRVTISVDTSKNHFSLKLSSVTAADTAVYFCARGLYNWNVDHWGQGTLVTVSS
VL: DIQMTQSPSSLSASVGDRVTITCRASQGIRNDLGWYQQKPGKAPKRLIYAASSLQSGVPSRFSGSGSGTDFTLTISSLQPEDFATYYCLQHNAYPRTFGGGTKVEIKR
B11: B7-H4 antibody 0388 (antibody, human IgG1, kappa, V domains shown)
VH: QVQLQQWGAGLLKPSETLPLTCAVYGGSFSGYYWNWIRQPPGKGLEWIGEINHSGSATYNPSLKSRVTISVDTSKNHFSLKLSSVTAADTAVYFCARGLYNWNVDHWGQGTLVTVSS
VL: DIQMTQSPSSLSASVGDRVTITCRASQGIRNDLGWYQQKPGKAPKRLIYAASSLQSGVPSRFSGSGSGTDFTLTISSLQPEDFATYYCLQHNAYPYTFGQGTKLEIKR
B12: B7-H4 antibody 1082 (antibody, human IgG1, kappa, V domains shown)
VH: EVQLVESGGGLVQPGGSLRLSCAASGGSFSGYYWNWVRQAPGKGLEWIGEINHSGSATYNPSLKSRVTISVDTAKNSLYLQMNSLRAEDTAVYYCARGLYNWNVDHWGQGTLVTVSS
VL: DIQMTQSPSSLSASVGDRVTITCRASQGIRNDLGWYQQKPGKAPKRLIYAASSLQSGVPSRFSGSGSGTDFTLTISSLQPEDFATYYCLQHNAYPRTFGGGTKVEIKR
B13: B7-H4 antibody 0391 (antibody, human IgG1, kappa, V domains shown)
VH: QVQLQQWGAGLLKPSETLPLTCAVYGGSFSGYYWNWIRQPPGKGLEWIGEINHSGSATYNPSLKSRVTISVDTSKNHFSLKLSSVTAADTAVYFCARGLYNWNVDHWGQGTLVTVSS
VL: DIQMTQSPSSLSASVGDRVTITCRASQGIRNDLGWYQQKPGKAPKRLIYAASSLQSGVPSRFSGSGSGTDFTLTISSLQPEDFATYYCLQHASYPYTFGQGTKLEIKR
B14: B7-H4 antibody 1083 (antibody, human IgG1, kappa, V domains shown)
VH: EVQLVESGGGLVQPGGSLRLSCAASGGSFSGYYWNWIRQPPGKGLEWIGEINHSGSATYNPSLKSRVTISVDTAKNSFYLQMNSLRAEDTAVYYCARGLYNWNVDHWGQGTLVTVSS
VL: DIQMTQSPSSLSASVGDRVTITCRASQGIRNDLGWYQQKPGKAPKRLIYAASSLQSGVPSRFSGSGSGTDFTLTISSLQPEDFATYYCLQHNAYPRTFGGGTKVEIKR
B15: B7-H4 antibody 0386 (antibody, human IgG1, kappa, V domains shown)
VH: QVQLQQWGAGLLKPSETLPLTCAVYGGSFSGYYWNWIRQPPGKGLEWIGEINHSGSATYNPSLKSRVTISVDTSKNHFSLKLSSVTAADTAVYFCARGLYNWNVDHWGQGTLVTVSS
VL: DIQMTQSPSSLSASVGDRVTITCRASQGIRNDLGWYQQKPGKAPKRLIYAASSLQSGVPSRFSGSGSGTDFTLTISSLQPEDFATYYCLQHASYPRTFGGGTKVEIKR
B16: B7-H4 antibody 0390 (antibody, human IgG1, kappa, V domains shown)
VH: QVQLQQWGAGLLKPSETLPLTCAVYGGSFSGYYWNWIRQPPGKGLEWIGEINHSGSATYNPSLKSRVTISVDTSKNHFSLKLSSVTAADTAVYFCARGLYNWNVDHWGQGTLVTVSS
VL: DIQMTQSPSSLSASVGDRVTITCRASQGIRNDLGWYQQKPGKAPKRLIYAASSLQSGVPSRFSGSGSGTDFTLTISSLQPEDFATYYCLQHQSYPYTFGQGTKLEIKR
B17: B7-H4 antibody 0384 (antibody, human IgG1, kappa, V domains shown)
VH: QVQLQQWGAGLLKPSETLPLTCAVYGGSFSGYYWNWIRQPPGKGLEWIGEINHSGSATYNPSLKSRVTISVDTSKNHFSLKLSSVTAADTAVYFCARGLYNWNVDHWGQGTLVTVSS
VL: DIQMTQSPSSLSASVGDRVTITCRASQGIRNDLGWYQQKPGKAPKRLIYAASSLQSGVPSRFSGSGSGTDFTLTISSLQPEDFATYYCLQHSSYPRTFGGGTKVEIKR
B18: B7-H4 antibody 0277 (antibody, human IgG1, kappa, V domains shown)
VH: EVQLVESGGGLVQPGGSLRLSCAASGGSFSGYYWNWVRQAPGKGLEWVAEINHSGSATYNPSLKSRFTISRDNAKNSLYLQMNSLRAEDTAVYYCARGLYNWNVDHWGQGTLVTVSS
VL: DIQMTQSPSSLSASVGDRVTITCRASQGIRNDLGWYQQKPGKAPKRLIYAASSLQSGVPSRFSGSGSGTEFTLTISSLQPEDFATYYCLQHNSYPRTFGGGTKVEIKR
B19: B7-H4 antibody 0267 (antibody, human IgG1, kappa, V domains shown)
VH: EVQLVESGGGLVQPGGSLRLSCAASGGSFSGYYWNWVRQAPGKGLEWIGEINHSGSTKYNPSLKSRFTISGDNAKNSFYLQMNSLRAEDTAVYYCVRGLYNWNVDSWGQGTLVTVSS
VL: DIQMTQSPSSLSASVGDRVTITCRASQGIRNDLGWYQQKPGKAPKRLIYVASSLQSGVPSRFSGSGSGTEFTLTISSLQPEDFATYYCLQHNSYPYTFGQGTKLEIKR
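For IC50 in this document: tested antibody premixed 1:1 with biotinylated parental antibody, 2 h at room temperature on coated ECD, bound biotin detected via streptavidin-HRP, absorbance read at 450 nm.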

One assay addresses T1, human B7-H4 extracellular domain. The assay is described as follows: SPR 37 C; IgG1 on anti-hFc chip, ECD analyte.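 Also: antibodies captured, then B7-H4 ECD injected at five 3-fold dilutions from 300 nM, 65 s association and 600 s dissociation, fitted to a 1:1 Langmuir model.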
Usually Kd stands for the equilibrium constant for the complex coming apart. High values mean lower affinity, low ones higher affinity. Usually koff stands for a measure of how fast the partners let go of each other. Read a low koff as slow dissociation. The term kon denotes the rate constant with which the complex forms. B1: the Kd worked out at 13.8 nM, the koff came to 0.0054 s⁻¹ and the kon is 392000 M⁻¹ s⁻¹.

Regarding B2, binding was put at a Kd of 33.4 nM, the off-rate (koff) was determined as 0.00962 s⁻¹ and the kon is 288000 M⁻¹ s⁻¹.

B3 showed a Kd of 22.6 nM, a koff of 0.0086 s⁻¹ and a kon of 381000 M⁻¹ s⁻¹.

Turning to B4, the affinity, expressed as Kd, was 11.8 nM; the off-rate (koff) came to 0.00539 s⁻¹; the kon was 454000 M⁻¹ s⁻¹.

The next assay deals with T2, human B7-H4 extracellular domain. The assay is described as follows: competition ELISA on coated huB7-H4 ECD; competitor biotinylated 0052 (by series, not given).
The term IC50 denotes the concentration that gives 50% inhibition. A low value points to greater potency. B5 yielded a 50% inhibitory concentration (IC50) of 3.5 nM.

Turning to B6, the IC50 is 7.2 nM and 12.9 nM.

Consider B7, for which the IC50 is 7.87 nM. This counts as single-digit nanomolar.

In turn, B8 registered an IC50 of 9.07 nM.

As to B9, the IC50 was 5.94 nM and 14.9 nM.

B10: the IC50 came to 7.17 nM.

With B11, the IC50 was found to be 11.3 nM.

The molecule B12 gave an IC50 of 2 nM.

The molecule B13 came in with an IC50 of 13.6 nM.

The molecule B14 yielded an IC50 of 2.1 nM. This IC50 lies about 6.5-fold lower than the previous one.

Take B15: the half-inhibitory concentration (IC50) was 9.2 nM.

On to B16, for which the IC50 was determined as 15.2 nM.

With B17, the IC50 worked out at 6.91 nM.

Take B18: the IC50 is 19 nM.

The molecule B19 gave an IC50 of 9.42 nM. Compared with the last molecule, the IC50 is about 2-fold lower.
